The values below come from publication PMC5059719, “Tetrameric structure of the restriction DNA glycosylase R.PabI in complex with nonspecific double-stranded DNA” (Scientific Reports, 2016).

For data set [1], the target named is R.PabI Y68F R70D mutant, residues 8-226 (Pyrococcus abyssi) (UniProt Q9V2B6).
Data set [2] deals with the molecule itself. The experiment in a line: cell-based or functional assay.
The target in data set [3] is R.PabI Y68F R70D D71R mutant, residues 8-226 (Pyrococcus abyssi) (UniProt Q9V2B6).
Data set [4] concerns the molecule itself. The experiment in a line: crystal structure; R.PabI R32A E63A dimer co-crystallised with 20 bp blunt-ended nonspecific dsDNA (dsDNA:dimer 1:2) in 10 mM MES pH 6.0, 100 mM NaCl; sitting drop, 20 °C; one dimer in the asymmetric unit, tetramer = two dimers related by the crystallographic two-fold axis, sandwiching the dsDNA.

B1: R.PabI Y68F R70D mutant, residues 8-226 (enzyme)
chain: EASVSFENGKIVVRLPITRPTSKIRVKKIENGVGIPVSTRKKSFPSDENLRDYYIEWQISFADDGKYDYELSRMVRLAHEHGILTYNDIYELLKFADDVKSYLEDKGIRRESTNEELYGFNIYEDVYPVAKKELPSGEFIGIVLKHKQRAVGYQSMVYVCIPLTNVEPSLAGRVARRNEVVKYEVPVDLMKELLKAFIIASETHKNDIVKFLRSIIGTS
As to B1, in data set [1], the DNA glycosylase activity relative to the Y68F control, 24 bp dsDNA substrate is 127%; the DNA glycosylase activity relative to the Y68F control, 500 bp dsDNA substrate amounted to 76%; the DNA glycosylase activity relative to the Y68F control, 3000 bp dsDNA substrate was 19%.

B2: R.PabI Y68F D71R mutant, residues 8-226 (enzyme, Pyrococcus abyssi, UniProt Q9V2B6 8-226, looked up)
chain: EASVSFENGKIVVRLPITRPTSKIRVKKIENGVGIPVSTRKKSFPSDENLRDYYIEWQISFARRGKYDYELSRMVRLAHEHGILTYNDIYELLKFADDVKSYLEDKGIRRESTNEELYGFNIYEDVYPVAKKELPSGEFIGIVLKHKQRAVGYQSMVYVCIPLTNVEPSLAGRVARRNEVVKYEVPVDLMKELLKAFIIASETHKNDIVKFLRSIIGTS
For B2, in data set [2], the “DNA glycosylase activity relative to the Y68F control, 24 bp dsDNA substrate” value is 74%; the “DNA glycosylase activity relative to the Y68F control, 500 bp dsDNA substrate” value worked out at 34%; the “DNA glycosylase activity relative to the Y68F control, 3000 bp dsDNA substrate” value was 19%.

B3: R.PabI Y68F R70D D71R mutant, residues 8-226 (enzyme)
chain: EASVSFENGKIVVRLPITRPTSKIRVKKIENGVGIPVSTRKKSFPSDENLRDYYIEWQISFADRGKYDYELSRMVRLAHEHGILTYNDIYELLKFADDVKSYLEDKGIRRESTNEELYGFNIYEDVYPVAKKELPSGEFIGIVLKHKQRAVGYQSMVYVCIPLTNVEPSLAGRVARRNEVVKYEVPVDLMKELLKAFIIASETHKNDIVKFLRSIIGTS
As to B3, in data set [3], the DNA glycosylase activity relative to the Y68F control, 24 bp dsDNA substrate was found to be 105%; the DNA glycosylase activity relative to the Y68F control, 500 bp dsDNA substrate was 71%; the DNA glycosylase activity relative to the Y68F control, 3000 bp dsDNA substrate stood at 40%.

B4: R.PabI R32A E63A double mutant, residues 8-226 (enzyme, Pyrococcus abyssi, UniProt Q9V2B6 8-226, looked up)
chain: EASVSFENGKIVVRLPITRPTSKIAVKKIENGVGIPVSTRKKSFPSDENLRDYYIAWQISYARDGKYDYELSRMVRLAHEHGILTYNDIYELLKFADDVKSYLEDKGIRRESTNEELYGFNIYEDVYPVAKKELPSGEFIGIVLKHKQRAVGYQSMVYVCIPLTNVEPSLAGRVARRNEVVKYEVPVDLMKELLKAFIIASETHKNDIVKFLRSIIGTS
notes: R.PabI, type II restriction enzyme (restriction DNA glycosylase) of Pyrococcus abyssi, residues 8-226, with R32A and E63A; Cloned into the NdeI-BamHI site of pET26b; also called protomers A and B; source: E. coli Rosetta(DE3)pLysS, purified (heat treatment, heparin column, MonoS)
Regarding B4, in data set [4], the stoichiometry N – broadly, a count of units in the complex or per binding partner – came out at 2.
